Data as given in patent US20240059769A1 (BIOLOJIC DESIGN, published 2024).
Where a chain is given by its changes, count along the chain named.

B1: BDG38.091 (antibody, V domains shown)
VH: QMQLVESGGGVVQPGRSLTLSCAASGFEFRTYGMHWVRQAPGKGLEWLGVIWYDGSNTHYADSVKGRFTITRDNSKNTLNLQMNSLRVEDTAVYYCVRAPQWYLTAEAFDLWGQGTMVTVSS
VL: SYILTQPPSVSVAPGETATITCGGNLIGSRLVHWYQQKPGQAPVLVIYDDSDRPSRIPERFSGSNIGNTATLTISDVEAGDEADYYCQVWDHYSNHYVFGGGTKLTVL
notes: IgG1
B2: BDG38.098 (antibody, V domains shown)
VH: B1 VH with L48V, G49A, Y53D, H59V
VL: B1 VL with I3V, E16Q, S29A, D76R, H92Y, Y93S, N95D, H96S, Y97M
notes: IgG1
B3: BDG38.107 (antibody, V domains shown)
VH: B1 VH with L48V, V88A
VL: B1 VL with E16Q, S29A, S75E, D76R, A79E, H92Y, Y93S, N95D, H96S
notes: IgG1
B4: BDG38.110 (antibody, V domains shown)
VH: B1 VH with T19R, L48V, G49A, Y53D, V88A
VL: B1 VL with A18T, T19R, S29A, R30K, S75E, H92Y, Y93S, Y97M
notes: IgG1
B5: BDG38.115 (antibody, V domains shown)
VH: B1 VH with V88A
VL: B1 VL with E16Q, S29A, I66S, A79E, H92Y, Y93S, H96T
notes: IgG1
B6: BDG38.084 (antibody, V domains shown)
VH: B1 VH with T19R, E28A, L48V, G49A, Y53D, V88A
VL: SYVLTQPPSVSVAPGETATITCGGNLIGAYLVHWYQQKPGQAPVLVVYDDVDRPDRIPERFSGSNSGNTATLTISRVEAGDEADYYCQVWDHSTNTMVFGGGTKLTVL
B7: BDG38.085 (antibody, V domains shown)
VH: B1 VH with L48V
VL: B1 VL with I3V, S29A, S75E, D76R, H92Y, Y93S, H96S
B8: BDG38.086 (antibody, V domains shown)
VH: B1 VH with T19R, L48V, V88A
VL: B1 VL with I3V, E16Q, T19R, S29A, I47V, A79E, H92Y, Y93S, H96T
B9: BDG38.088 (antibody, V domains shown)
VH: B1 VH with L48V
VL: B1 VL with I3V, S29A, H92Y, Y93S, H96T
B10: BDG38.089 (antibody, V domains shown)
VH: B1 VH with T19R, L48V, N57A
VL: B1 VL with S29A, D76R, A79E, Y93S
B11: BDG38.093 (antibody, V domains shown)
VH: B1 VH with L48V, V88A
VL: SYVLTQPPSVSVAPGQTARITCGGNLIGARLVHWYQQKPGQAPVLVIYDDSDRPSRIPERFSGSNIGNTATLTIERVEEGDEADYYCQVWDYSADSYVFGGGTKLTVL
B12: BDG38.095 (antibody, V domains shown)
VH: B1 VH with L48V, N57A, V88A
VL: B11 VL with R19T, N25A, A29S, I47V, E75S, S93Y, A94S
B13: BDG38.097 (antibody, V domains shown)
VH: B1 VH with T19R, N57A, V88A
VL: B1 VL with S29A, S75E, D76R, A79E, H92Y, N95D
B14: BDG38.099 (antibody, V domains shown)
VH: B1 VH with T19R, L48V, V88A
VL: B11 VL with V3I, Q16E, R76D, A94S
B15: BDG38.100 (antibody, V domains shown)
VH: B1 VH with T19R, L48V
VL: B11 VL with Q16E, S93Y, A94S, D95N
B16: BDG38.101 (antibody, V domains shown)
VH: B1 VH with T19R, L48V, N57A
VL: B1 VL with S29A, D76R, A79E, H92Y, Y93S, H96T
B17: BDG38.102 (antibody, V domains shown)
VH: B1 VH with T19R, L48V, V88A
VL: B1 VL with I3V, S29A, I47V, S75E, H92Y, Y93S, H96T
B18: BDG38.103 (antibody, V domains shown)
VH: B1 VH with T19R, L48V
VL: B1 VL with I3V, E16Q, S29A, I47V, A79E, H92Y, H96S
B19: BDG38.104 (antibody, V domains shown)
VH: B1 VH with L48V, N57A, V88A
VL: B1 VL with S29A, S75E, A79E, H92Y, N95D, H96S
B20: BDG38.105 (antibody, V domains shown)
VH: B1 VH with L48V
VL: B1 VL with I3V, S29A, S75E, D76R, H92Y, H96S
B21: BDG38.108 (antibody, V domains shown)
VH: B1 VH with T19R, L48V, V88A
VL: B1 VL with S29A, A79E, H92Y, H96S
B22: BDG38.109 (antibody, V domains shown)
VH: B1 VH with T19R, L48V, V88A
VL: B11 VL with V3I, R19T, A94S, D95N
B23: BDG38.111 (antibody, V domains shown)
VH: B1 VH with L48V, Y53D, N57A
VL: B1 VL with I3V, N25A, S29A, I47V, D76R, H92Y, S94A, H96S
B24: BDG38.113 (antibody, V domains shown)
VH: B1 VH with L48V, V88A
VL: B11 VL with Q16E, R19T, R76D, A94S
B25: BDG38.114 (antibody, V domains shown)
VH: B1 VH with L48V
VL: B11 VL with V3I, R19T, R76D, D95N
B26: BDG38.119 (antibody, V domains shown)
VH: B1 VH with T19R, L48V, V88A
VL: B1 VL with S29A, D76R, A79E, H92Y, Y93S, H96T
B27: BDG38.120 (antibody, V domains shown)
VH: B1 VH with T19R, L48V, G49A, Y53D, V88A
VL: B1 VL with S29A, I66S, H92Y, Y93S, N95D, Y97M
B28: BDG38.121 (antibody, V domains shown)
VH: B1 VH with T19R, L48V, V88A
VL: B1 VL with S29A, D76R, H92Y, Y93S, H96T
B29: BDG38.122 (antibody, V domains shown)
VH: B1 VH with T19R, L48V, G49A, Y53D, V88A
VL: B11 VL with V3I, Q16E, R19T, E75S, A94S
B30: BDG38.123 (antibody, V domains shown)
VH: B1 VH with T19R, L48V, G49A, Y53D, V88A
VL: B1 VL with S29A, H92Y, Y93S, N95D, H96T
B31: BDG38.124 (antibody, V domains shown)
VH: B1 VH with T19R, L48V, Y53D, V88A
VL: B1 VL with S29A, H92Y, Y93S, N95D, H96T
B32: BDG38.130 (antibody, V domains shown)
VH: B1 VH with E28A, L48V, G49A, Y53D
VL: B1 VL with S29A, S75E, D76R, H92Y, Y93S, H96S
B33: BDG38.133 (antibody, V domains shown)
VH: B1 VH with T19R, L48V, G49A, Y53D, V88A
VL: B1 VL with S29A, D76R, H92Y, Y93S, N95D, H96T
B34: BDG38.136 (antibody, V domains shown)
VH: B1 VH with T19R, G49A, V88A, L104N, T105S
VL: B11 VL with R30K, R56H, I66S, E75S, E79A, A94S, S96T, Y97M
B35: BDG38.141 (antibody, V domains shown)
VH: B1 VH with T19R, L48V, G49A, Y53D, V88A
VL: B1 VL with N25A, A79E, H92Y, Y97M
B36: BDG38.142 (antibody, V domains shown)
VH: B1 VH with L48V, G49A, Y53D, V88A
VL: B11 VL with V3I, R19T, R30K, I47V, S93Y, A94S, D95H, S96T, Y97M
B37: BDG38.143 (antibody, V domains shown)
VH: B1 VH with T19R, L48V, Y53D, N57A
VL: B11 VL with V3I, R19T, N25A, E75S, A94S, D95N, S96T

How the values were obtained:
human TSLP = target: T1, human TSLP (human, UniProt Q969D9 29-159); experiment: SPR
T1 construct: also called hTSLP; rhTSLP

recombinant human IL-13 [1] = target: T2, recombinant human IL-13 (human, UniProt P35225 35-146); experiment: SPR
T2 construct: also called rh-IL-13; hIL-13

hTSLP-His = hTSLP-His (human, UniProt Q969D9 29-159, limits assumed); experiment: cell-based or functional assay
recombinant human IL-13 [2] = target: T2, recombinant human IL-13; experiment: cell-based or functional assay

T2 sequence (P35225 35-146 limits assumed): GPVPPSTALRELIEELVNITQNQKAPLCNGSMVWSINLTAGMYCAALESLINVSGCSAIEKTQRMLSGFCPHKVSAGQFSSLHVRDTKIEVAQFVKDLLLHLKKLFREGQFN

Row | Binder | HEK-IL-13 [nM] (IC50, STAT6 reporter) (recombinant human IL-13 [2]) | further results
1 | B1 | 0.0832 | Kd (human TSLP): 0.0621 nM; koff (human TSLP): 8.67e-05 s⁻¹; kon (human TSLP): 1.4e+06 M⁻¹ s⁻¹; Kd (recombinant human IL-13 [1]): 0.0604 nM; koff (recombinant human IL-13 [1]): 0.000216 s⁻¹; kon (recombinant human IL-13 [1]): 3.57e+06 M⁻¹ s⁻¹; IC50 [pM], STAT5 phosphorylation inhibition in MUTZ5 cells (hTSLP-His): 0.507 pM
2 | B2 | 0.0884 | Kd (human TSLP): 0.0275 nM; koff (human TSLP): 0.000237 s⁻¹; kon (human TSLP): 8.6e+06 M⁻¹ s⁻¹; Kd (recombinant human IL-13 [1]): 0.0239 nM; koff (recombinant human IL-13 [1]): 0.000138 s⁻¹; kon (recombinant human IL-13 [1]): 5.8e+06 M⁻¹ s⁻¹; IC50 [pM], STAT5 phosphorylation inhibition in MUTZ5 cells (hTSLP-His): 68.8 pM
3 | B3 | 0.0943 | Kd (human TSLP): 0.151 nM; koff (human TSLP): 8.16e-05 s⁻¹; kon (human TSLP): 541000 M⁻¹ s⁻¹; Kd (recombinant human IL-13 [1]): 0.00274 nM; koff (recombinant human IL-13 [1]): 2.02e-05 s⁻¹; kon (recombinant human IL-13 [1]): 7.36e+06 M⁻¹ s⁻¹; IC50 [pM], STAT5 phosphorylation inhibition in MUTZ5 cells (hTSLP-His): 0.508 pM
4 | B4 | 0.0299 | Kd (human TSLP): 0.129 nM; koff (human TSLP): 0.000298 s⁻¹; kon (human TSLP): 2.31e+06 M⁻¹ s⁻¹; Kd (recombinant human IL-13 [1]): 0.0742 nM; koff (recombinant human IL-13 [1]): 0.000427 s⁻¹; kon (recombinant human IL-13 [1]): 5.75e+06 M⁻¹ s⁻¹; IC50 [pM], STAT5 phosphorylation inhibition in MUTZ5 cells (hTSLP-His): 0.295 pM
5 | B5 | 0.0664 | Kd (human TSLP): 0.84 nM; koff (human TSLP): 0.000532 s⁻¹; kon (human TSLP): 634000 M⁻¹ s⁻¹; Kd (recombinant human IL-13 [1]): 0.125 nM; koff (recombinant human IL-13 [1]): 0.000455 s⁻¹; kon (recombinant human IL-13 [1]): 3.63e+06 M⁻¹ s⁻¹; IC50 [pM], STAT5 phosphorylation inhibition in MUTZ5 cells (hTSLP-His): 300 pM
6 | B6 | 0.0419 | 
7 | B7 | 0.0236 | 
8 | B8 | 0.0174 | IC50 [pM], STAT5 phosphorylation inhibition in MUTZ5 cells (hTSLP-His): 830 pM
9 | B9 | 0.0486 | 
10 | B10 | 0.075 | 
11 | B11 | 0.0402 | 
12 | B12 | 0.0822 | 
13 | B13 | 0.0464 | 
14 | B14 | 0.0601 | 
15 | B15 | 0.0801 | 
16 | B16 | 0.0403 | 
17 | B17 | 0.0421 | 
18 | B18 | 0.084 | 
19 | B19 | 0.0381 | 

Row | Binder | HEK-IL-13 [nM] (IC50, STAT6 reporter) (recombinant human IL-13 [2]) | further results
20 | B20 | 0.134 | 
21 | B21 | 0.0659 | 
22 | B22 | 0.063 | 
23 | B23 | 0.0545 | 
24 | B24 | 0.0284 | 
25 | B25 | 0.0989 | 
26 | B26 | 0.0662 | 
27 | B27 | 0.265 | IC50 [pM], STAT5 phosphorylation inhibition in MUTZ5 cells (hTSLP-His): 0.232 pM
28 | B28 | 0.0562 | 
29 | B29 | 0.079 | 
30 | B30 | 0.044 | 
31 | B31 | 0.0523 | 
32 | B32 | 0.0646 | 
33 | B33 | 0.029 | 
34 | B34 | 0.151 | 
35 | B35 | 0.0824 | 
36 | B36 | 0.0584 | 
37 | B37 | 0.0438 | 
